Laboratory results from patent US20200369773A1 (CELDARA MEDICAL, published 2020).

B1: scFvP3G5VLVH-mCD28H-mCD28TM-mCD28CS-mCD3zICS (anti-Fn14 CAR) (receptor)
chain: DIVLTQSPASLAVSLGQRATISCRANKSVSTSSYSYMHWYQQKPGQPPKLLIKYASNLESGVPARFSGSGSGTDFILNIHPVEEEDAATYYCQHSRELPFTFGSGTKLEIKGGGGSGGGGSGGGGSQVQLQQSGPEVVRPGVSVKISCKGSGYTFTDYGIHWVKQSHAKSLEWIGVISTYNGYTNYNQKFKGKATMTVDKSSSTAYMELARLTSEDSAIYYCARAYYGNLYYAMDYWGQGTSVTVSSIKEKHLCHTQSSPKLFWALVVVAGVLFCYGLLVTVALCVIWTNSRRNRLLQSDYMNMTPRRPGLTRKPYQPYAPARDFAAYRPRAKFSRSAETAANLQDPNQLYNELNLGRREEYDVLEKKRARDPEMGGKQQRRRNPQEGVYNALQKDKMAEAYSEIGTKGERRRGKGHDGLYQGLSTATKDTYDALHMQTLAPR
notes: Chimeric antigen receptor on transduced mouse T cells
B2: mouse truncated CD19 (mtrCD19), mock construct without CAR (other)
chain: RPQKSLLVEVEEGGNVVLPCLPDSSPVSSEKLAWYRGNQSTPFLELSPGSPGLGLHVGSLGILLVIVNVSDHMGGFYLCQKRPPFKDIWQPAWTVNVEDSGEMFRWNASDVRDLDCDLRNRSSGSHRSTSGSQLYVWAKDHPKVWGTKPVCAPRGSSLNQSLINQDLTVAPGSTLWLSCGVPPVPVAKGSISWTHVHPRRPNVSLLSLSLGGEHPVREMWVWGSLLLLPQATALDEGTYYCLRGNLTIERHVKVIARSAVWLWLLRTGGWIVPVVTLVYVIFCMVSLVAFLYCQRAFILRRKRKRMT
notes: Negative control: mouse T cells transduced with a vector that encodes only mtrCD19 and no CAR; also called mt19; mock transduced cells
B3: scFvP3G5VHVL-mCD28H-mCD28TM-mCD28CS-mCD3zICS (anti-Fn14 CAR) (receptor)
chain: QVQLQQSGPEVVRPGVSVKISCKGSGYTFTDYGIHWVKQSHAKSLEWIGVISTYNGYTNYNQKFKGKATMTVDKSSSTAYMELARLTSEDSAIYYCARAYYGNLYYAMDYWGQGTSVTVSSGGGGSGGGGSGGGGSDIVLTQSPASLAVSLGQRATISCRANKSVSTSSYSYMHWYQQKPGQPPKLLIKYASNLESGVPARFSGSGSGTDFILNIHPVEEEDAATYYCQHSRELPFTFGSGTKLEIKIKEKHLCHTQSSPKLFWALVVVAGVLFCYGLLVTVALCVIWTNSRRNRLLQSDYMNMTPRRPGLTRKPYQPYAPARDFAAYRPRAKFSRSAETAANLQDPNQLYNELNLGRREEYDVLEKKRARDPEMGGKQQRRRNPQEGVYNALQKDKMAEAYSEIGTKGERRRGKGHDGLYQGLSTATKDTYDALHMQTLAPR
notes: as for B1

Each binder was assayed against T1, FITC-recombinant mouse Fn14:human Fc (ENZO ALX-522-036F) (mouse, UniProt Q9CR75 28-80, FITC label (site not stated)) (assay: flow cytometry; transduced mouse T cells stained with FITC-recombinant mouse Fn14:human Fc).
T1 construct: Bought reagent; also called FITC-recombinant Fn14; recombinant Fn14; not shown: human Fc
T1 sequence: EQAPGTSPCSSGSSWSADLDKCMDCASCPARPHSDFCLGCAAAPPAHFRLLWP
Procedure: Cell samples that were subjected to transduction with pFB vector containing the anti-Fn14 CAR and T2A+mtrCD19 (4A8H_mt19, 4A8L_mt19, 3G5H_mt19, 3G5L_mt19) construct or just the T2A+mtrCD19 (mt19) construct (from Day 8 of Example 1) were harvested, and 0.25×10⁶ cells in 100 μL of FACS buffer were placed in a 96 well round bottom plate. The plate was spun at 500 ref for 1 min at room temperature, and the supernatant was removed. Cells in each well were resuspended in 25 μL of Blocking buffer and incubated on ice for 10 min.
Cells were then added with 150 μL of FACS buffer and spun at 500 ref for 2 min, and the supernatant was removed. This washing step was repeated once more with 200 μL of FACS buffer.
For the same day FACS analysis, cells in each well were resuspended in 250 μL of FACS buffer and analyzed on flow cytometer. For the next day analysis, cells were diluted in 250 μL of Fixation buffer until analyzed the following day. Cells were stored on ice or 4° C., protected from light, until run on FACS machine.

Row | Binder | % anti-Fn14 CAR^+ of CD3^+ cells (staining with FITC-recombinant Fn14)
1 | B1 | 11.4%
2 | B2 | 1.6%
3 | B3 | 10.8%
